Assay results taken from the supplement of paper PMC9170038.

Tested on: MS2 coat protein
Experiment: apparent KD of MS2 coat protein; higher = weaker reporter binding
Details: Eterna round: R107
Outline: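 Values are apparent KD, taken as the median for each design of fits to normalised binding curves from individual clusters. The designed RNA switches were transcribed on-chip from Illumina sequencing clusters and exposed to SNAP-549-labelled MS2 coat protein at twofold increasing amounts from 0.7 or 1.5 nM to 3 µM. Titration used 100 mM Tris-HCl pH 7.5, 80 mM KCl and 4 mM MgCl2, without or with constant ligand.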

[1] = input ligand: theophylline 20 uM
[2] = input ligand: theophylline 2 mM
[3] = input ligand: tryptophan 2.4 mM

Sequence | apparent KD of MS2 coat protein (input ligand: arginine 13.2 mM) [nM] | apparent KD of MS2 coat protein (input ligand: none) [nM] | apparent KD of MS2 coat protein [1] [nM] | apparent KD of MS2 coat protein [2] [nM] | apparent KD of MS2 coat protein [3] [nM]
GCCAAAGGCUACAUGAGGAUCACCCAUGUACGAGGACCGGUACGGCCGCCACUCGUACGGCCUCCUACUGGACGGGAAACCGUCG [ETA NP+V+V2 #28] | 13.1 | 20.6 | 34.1 | 28 | 33.2
CGUAUGUAGACGGCCGCCACUGGAACAAGAGGAUCACCCUUGUACAGGGUGGGACUAUCGAGAGUCAGGACCGGGUCUACAUACA [Tryp B Ex t2] | 112 | 150 | 190 | 140 | 19.7
AGCUCUGAUACGGCCGCCACUAGAUGGUGUUGUAAGAGACGCCUACAUGAGGAUCACCCAUGUCAUAGGACCGGGUAUAAAUACA [theeternabot_sameState_MS2_Trp_B_8] | 27.8 | 26.4 | 30.7 | 46.4 | 18.2
AAUAAACAUGAGGAUCACCCAUGUAUGGAAGGAGCGGUGAAUAAACCAGGUAGGUCGCCAGUGUGAGGGUCAUCUAUGUAAUAAA [Exclusion - Arginine A (Freestyle 2)] | 68.4 | 42.7 | 43.1 | 56.2 | 37.9
AUAUCAUAGAGUGAUACCAGACUACAUGAGGAUCACCCAUGUGACAUUUAAAUAUCAUUUGUCCCUUGGCAGCACAUUAAGUACA [JR_Nu_ExcTheophyB_Sub020] | 50.6 |  | 79.8 |  | 61.6
UCGUGUAUAUCGGAUACCAGUGAAAUCGAUACAUGAGGAUCACCCAUGUGAGAGGAUGUACACCCUUGGCAGCUGUAUAUAUCUG [ll,lmullin] | 18 |  | 25.1 |  | 20.4
UGUAUGGACUGAAGGAGCGGGUUGAUAACAUGAGGAUCACCCAUGUAAAAGGCGAAAGCCGCCCAGGUAGGUCGCAGUCCAUACU | 4.19 | 10.1 | 19.5 | 13.1 | 10.9
AGGAAGACGAUGGAUACCAGACAACCAGGGAACAUGAGGAUCACCCAUGUGAUUGAAAGGGUCCCUUGGCAGCCAGAAGCCGUUG [theeternabot_sameState_MS2_Theo_B_31] | 68.5 |  | 173 |  | 130
GACCUUGCCUGAAGGAGCGAGGUAAAUAGGGUUGAGCAUACAUGAGGAUCACCCAUGUGGCCUCAGGUAGGUCGCAGGUAGGACA [Exclusion Arginine B GF30] | 97.1 | 114 | 224 | 189 | 114
CCGAACAUGAGGAUCACCCAUGUUAGGGAUACCAGCUCAGACAUGGGCCCUUGGCAGCUCUAUAGCUGACGAAAGUCAGCAUCGG [#15 SameState-TheophyllineA] | 36.1 | 35 | 46.3 | 23.7 | 35.4
CGAGCUGACGGAAGGAGCGAAGCCUACUCGGUGUUCCCACAUGAGGAUCACCCAUGUGGGCUUCAGGUAGGUCGCCGAACAGUCG [Vecequlala] | 26.1 | 40.7 | 61 | 86.9 | 32.4
GUGACUUACGGGCGCCAUUUGUGAUAGGAAGGAGCGGCGAAAUAGCCAGGUAGGUCGCCUAUACAUGAGGAUCACCCAUGUCACC [Veveatonus] | 45.1 | 105 | 64.9 | 84.6 | 72.6
GCACAAGAUGGAAGGAGCGCUGGAAAAGGUCACAUGAGGAUCACCCAUGUUCUCCUAACCGAGCAGGUAGGUCGCCAUCUUGUGC [SSAB NP+V+V2 #1] | 24 | 23.7 | 25.6 | 29.8 | 25.9
CAUACUUUAGUAUGACAUGUGGGCAGUGAUACCAGAUACGAAAGUAUCCCUUGGCAGCACAACAUGAGGAUCACCCAUGUAAUUA [Theophylline A 2] | 26.1 |  | 52 |  | 37.3
ACGCGUCAAGAGUAAAAUCCGUCAAGUGAUACCAGCCACAACGUAGGCCCUUGGCAGCACAUGAGGAUCACCCAUGUAAUAAGGA [Gedigerace] | 42.4 | 33.3 | 53.4 | 670 | 22.5
GCACAUGAGGAUCACCCAUGUAUUACUGAAGGAGCGAGACAGAACUCAGGUAGGUCGCAGACGGCGGAAUCGCCGACGACAUGGG [Exclusion Arginine A GF23] | 20.3 | 36.7 | 66.5 | 40.7 | 27.7
GAACAAGGUUUCUUGUUCGGUCGCUGAGAAGGAGCGCGGUAACCCGCAGGUAGGUCGCUCAGAAAUACAUGAGGAUCACCCAUGU [Anaa] | 17.4 | 18.7 | 26.4 | 21.7 | 17.8
CAUGGGCUAAGACAUUAUUCGUAUUUUGAUACCAGAAAAUUGGCGUUCCCUUGGCAGCAAUAUACAUGAGGAUCACCCAUGUCCC [theeternabot_exclusion_MS2_Theo_A_23] | 38.8 |  | 70.9 |  | 58.3
AAGACGGUCGGAAGGAGCGGUACAUGAGGAUCACCCAUGUAUUCCUGGGCAUCCGUAGUGUGCCAGGUAGGUCGCCGAUUGCGGG [XArg-B13] | 40.3 | 37.9 | 91.7 | 97.2 | 40.9
UGAGAGGGCGGAAGGAGCGACAUGAGGAUCACCCAUGUCUCCCGUUAUGGGAGUUCUUUAGGUCAGGUAGGUCGCCGGCCUCUCA [#1 Exclusion - Arginine B Attempt #10 (Inspired by Omei)] | 94.3 | 122 | 104 | 127 | 111
GAUGAACUAUUUGAUACCAGACUACAUGAGGAUCACCCAUGUGAGUUUAUACUUCUGUCAGUCCCUUGGCAGCAAAUAGUUUAUC [XTheo B #5] | 21.5 |  | 27.8 |  | 16.4
GGGCCCGGGCCGCGCGCGGCCCGGGCCCAACGAGGACCGGUACGGCCGCCACUCGAACGAGUGGGUACAUGAGGAUCACCCAUGU [Aaa] | 25.7 | 27 | 41.8 | 45 | 33.3
UCACGAGGCCUGGAUACCAGCGACAUGAGGAUCACCCAUGUAUGAGGAUCAGCCAUGUUAUGCCCUUGGCAGCCACGAAGGUCAU [XZZMULLIN] | 14.5 |  | 26.5 |  | 15.8
GCAAUACAUGAGGAUCACCCAUGUGCAGAUACCAGAGGUGUAUGCCUCCCUUGGCAGCUGCGACGCUCUGGCAUCUUGUGGGAUG [Same State Theophylline A GF19] | 22.2 |  | 73.7 |  | 52
GAAUUAUGACGUGAUACCAGUGGUCAAUACUGGGAACUUAACAUGAGGAUCACCCAUGUCCACCCUUGGCAGCACGCUGACAAUC [theeternabot_exclusion_MS2_Theo_B_14] | 43.5 |  | 133 |  | 79.6
GGAGUAGGAAACUAUUCCAAUCCUCGUGAACGAGGACCGGUACGGCCGCCACUCGAUAAAUAAAUACAUGAGGAUCACCCAUGUU [Ex Tryptophan A 23] | 38 |  | 71.4 | 82.1 | 
ACAUGAGGAUCACCCAUGUGAAGCAGGGUACGAGGACCGGUACGGCCGCCACUCGAGCAUUAUACCGAGUGAAUGGCAACGAUGU [whbob_Ex_trypto A_2s17] | 14.4 |  | 19 | 21.1 | 
AAUGUCGGAUCGGCCGCCACUGGUUGGCCCUGUGUACAUGAGGAUCACCCAUGUCCAUCCCAAACCAGGACCGGGAUCUUUAUGU [Xeananor] | 37.9 |  | 51.7 | 40.4 | 
CUAUAAGUACCGGUCCUCAGAUCCUCAUGACGAGGACCGGUACGGCCGCCACUCGAAACAUGAGGAUCACCCAUGUAAUAAUACC [Brourdmod16] | 17.5 |  | 47.5 | 62.6 | 
AACUGGGUUCGUGAUACCAGCUCACACAUGAGGAUCACCCAUGUAGUGGGUAAAAUGUGGAGCCCUUGGCAGCACUGUGACCACG [Esria] | 14.6 |  | 25.4 |  | 14.4
